Positions count from the first letter of the chain named. Each block holds one binder with its values, some of them ahead of it.
Columns and labels:
Assay in all cases: activation reporter or marker
[1] = target: T1, p53 wild type (Y220) peptide on HLA-DRB1*04:01 (human)
T1 peptide: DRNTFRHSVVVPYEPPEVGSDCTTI

[2] = target: T2, p53 Y220C peptide on HLA-DRB1*04:01 (human)
T2 peptide: RNTFRHSVVVPCE

[3] = target: T3, p53 R248W peptide on HLA-A*68:01 (human)
T3 peptide: SSCMGGMNWR

binding result [3]: recognises
B3: 4266-TCR2 (TCR, V domains shown)
Valpha: GQNIDQPTEMTATEGAIVQINCTYQTSGFNGLFWYQQHAGEAPTFLSYNVLDGLEEKGRFSSFLSRSKGYSYLLLKELQMKDSASYLCAVYTGGFKTIFGAGTRLFVKA
Vbeta: EAGVAQSPRYKIIEKRQSVAFWCNPISGHATLYWYQQILGQGPKLLIQFQNNGVVDDSQLPKDRFSAERLKGVDSTLKIQPAKLEDSAVYLCASNLGGGSTDTQYFGPGTRLTVL

binding result [3]: recognises
B4: 4266-TCR4 (TCR, V domains shown)
Valpha: GQNIDQPTEMTATEGAIVQINCTYQTSGFNGLFWYQQHAGEAPTFLSYNVLDGLEEKGRFSSFLSRSKGYSYLLLKELQMKDSASYLCAVYPGGSQGNLIFGKGTKLSVKP
Vbeta: B3 Vbeta with N95S, G98T

More lines, now with the values behind:

B1: 4259-F6-TCR (TCR, V domains shown)
Valpha: QKEVEQNSGPLSVPEGAIASLNCTYSDRGSQSFFWYRQYSGKSPELIMFIYSNGDKEDGRFTAQLNKASQYVSLLIRDSQPSDSATYLCAWNSGGSNYKLTFGKGTLLTVNP
Vbeta: NAGVTQTPKFRVLKTGQSMTLLCAQDMNHEYMYWYRQDPGMGLRLIHYSVGEGTTAKGEVPDGYNVSRLKKQNFLLGLESAAPSQTSVYFCASSYSQAWGQPQHFGDGTRLSIL
binding result [1]: no recognition
binding result [2]: recognises

B2: 4266-TCR3 (TCR, V domains shown)
Valpha: B4 Valpha with V90F, P92Y
Vbeta: GAGVSQSPRYKVAKRGQDVALRCDPISGHVSLFWYQQALGQGPEFLTYFQNEAQLDKSGLPSDRFFAERPEGSVSTLKIQRTQQEDSAVYLCASSFGSGSTDTQYFGPGTRLTVL
binding result [3]: recognises

Reference: patent US20240270814A1 (published 2024)
